Reference: article PMC11270187 (Antibodies, 2024)

Assays:
[1] = target: T1, TEV-cleaved recombinant HLA-DR (Homo sapiens, …); assay: BLI; Fabs loaded on FAB2G biosensors; two-fold dilutions of TEV-cleaved HLA-DR from 500 nM; 25 °C; PBS pH 7.4, 0.01% BSA, 0.002% Tween; 1:1 model; settings: both partners purified
T1 construct: also called TEV-cleaved HLA-DR; source: HEK 293S (GnT I-/-), purified (HisTrap Ni-NTA, SEC), TEV-cleaved; for crystallization also EndoH-treated and purified a second time

[2] = target: T2, HLA-DR on BJAB cells (Homo sapiens; endogenous HLA-DR of BJAB …); assay: flow cytometry on cells; full antibody titration of purified IgGs on HLA-DR-expressing BJAB cells, Fc Block, 1 h at 4 °C, detected with AF488 goat anti-human IgG Fcγ; also after storage of the IgGs at -20, 4 or 40 °C for up to 4 weeks; settings: one partner purified
T2 construct: HLA-DR α chain, endogenous on BJAB B-lymphoblastoid cells; HLA-DR β chain, endogenous on BJAB B-lymphoblastoid cells; also called HLA-DR-expressing B-lymphoblastoid cell line BJAB; source: endogenous, on BJAB cells

[3] = target: T2, HLA-DR on BJAB cells; assay: flow cytometry on cells; screen: purified IgGs at 10 µg/mL on HLA-DR-expressing BJAB cells, Fc Block, 1 h at 4 °C, detected with AF488 goat anti-human IgG Fcγ; settings: one partner purified

| Binder | fold improvement of EC50 against V17 [2] | other results |
| --- | --- | --- |
|  (Fab, V domains shown, as the heavy chain of m11 with the changes below; as the light chain of m11; also called V14-V71K/F78V double mutant; V14-V71K-F78V; source: FreeStyle 293-F, transfected, purified (KappaSelect, MonoS, SEC)) VH: QVQLQESGPGLVKPSETLSLTCTVSGFSLTSYGVHWIRQPPGKGLEWIGVIWAGGSINYNSALMSRVTISKDTSKNQVSLKLSSVTAADTAVYYCARAYGDYVHYAMDYWGQGTLVTVSS VL: DIQMTQSPSSLSASVGDRVTITCRASQEISGYLTWLQQKPGKAPKLLIYAASTLDSGVPSRFSGSGSGTDFTLTISSLQPEDFATYYCLQYTNYPLTFGQGTKLEIK | – | Kd [1]: 206 nM |
| humanized 44H10 version 22 IgG (antibody, V domains shown, as the heavy chain of m10 (IGHV4-59 with Kabat 44H10 CDRs) with the back-mutations below; as the light chain of m5 (IGKV1-16, printed here as IGHK1-16, with Kabat 44H10 CDRs) with the back-mutations below; IgG with human Fc; also called V22; lead humanized candidate; source: FreeStyle 293-F, transfected, purified (protein A, SEC)) VH: QVQLQESGPGLVKPSETLSLTCTVSGFSLTSYGVHWIRQPPGKGLEWIGVIWAGGSINYNSALMSRVTISKDTSKNQVSLKLSSVTAADTAVYYCARAYGDYVHYAMDYWGQGTLVTVSS VL: DIQMTQSPSSLSASVGDRVTITCRASQEISGYLTWLQQKPGKAPKLLIYAASTLDSGVPKRFSGSRSGTDFTLTISSLQPEDFATYYCLQYTNYPLTFGQGTKLEIK | – | fold reduction in EC50 against parental 44H10 IgG [2]: < 2 fold |
| parental 44H10 IgG (antibody, V domains shown, murine IGHV2-9; Fab part also in PDB 8EUQ; murine IGKV9-124; also in PDB 8EUQ; IgG; also called mAb 44H10; murine mAb 44H10; source: FreeStyle 293-F, transfected, purified (protein A, SEC)) VH: QVQLKESGPGLVAPSQSLSITCTVSGFSLTSYGVHWVRQPPGKGLEWLGVIWAGGSINYNSALMSRLSISKDNFKSQVFLKMSSLQTDDTAMYYCARAYGDYVHYAMDYWGQGTSVTASS VL: DIQMTQSPSSLSASLGQRVSLTCRASQEISGYLTWLQQKPDGTIKRLVYAASTLDSGVPKRFSGSRSGSDYSLTISSLESEDFADYYCLQYTNYPLTFGAGTKLELK | – | binding result [3]: binds |
| humanized 44H10 version 19 IgG (V17 with light chain G66R back-mutation) (antibody, V domains shown, as the heavy chain of m5; as the light chain of m5 with the change below; IgG with human Fc; also called V19; source: FreeStyle 293-F, transfected, purified (protein A, SEC)) VH: QVTLKESGPVLVKPTETLTLTCTVSGFSLTSYGVHWIRQPPGKALEWLAVIWAGGSISYSTSLMSRLTISKDTSKSQVVLTMTNMDPVDTATYYCARAYGDYVHYAMDYWGQGTLVTVSS VL: DIQMTQSPSSLSASVGDRVTITCRASQEISGYLTWLQQKPGKAPKLLIYAASTLDSGVPSRFSGSRSGTDFTLTISSLQPEDFATYYCLQYTNYPLTFGQGTKLEIK | ~3 fold | – |
| humanized 44H10 version 20 IgG (V17 with light chain S60K back-mutation) (antibody, V domains shown, as the heavy chain of m5; as the light chain of m5 with the change below; IgG with human Fc; also called V20; source: FreeStyle 293-F, transfected, purified (protein A, SEC)) VH: QVTLKESGPVLVKPTETLTLTCTVSGFSLTSYGVHWIRQPPGKALEWLAVIWAGGSISYSTSLMSRLTISKDTSKSQVVLTMTNMDPVDTATYYCARAYGDYVHYAMDYWGQGTLVTVSS VL: DIQMTQSPSSLSASVGDRVTITCRASQEISGYLTWLQQKPGKAPKLLIYAASTLDSGVPKRFSGSGSGTDFTLTISSLQPEDFATYYCLQYTNYPLTFGQGTKLEIK | ~3 fold | – |
| humanized 44H10 version 21 IgG (V17 with light chain S60K and G66R back-mutations) (antibody, V domains shown, as the heavy chain of m5 (IGHV2-26 with Kabat 44H10 CDRs); as the light chain of m5 with the changes below; IgG with human Fc; also called V21; source: FreeStyle 293-F, transfected, purified (protein A, SEC)) VH: QVTLKESGPVLVKPTETLTLTCTVSGFSLTSYGVHWIRQPPGKALEWLAVIWAGGSISYSTSLMSRLTISKDTSKSQVVLTMTNMDPVDTATYYCARAYGDYVHYAMDYWGQGTLVTVSS VL: DIQMTQSPSSLSASVGDRVTITCRASQEISGYLTWLQQKPGKAPKLLIYAASTLDSGVPKRFSGSRSGTDFTLTISSLQPEDFATYYCLQYTNYPLTFGQGTKLEIK | ~3 fold | – |
